The text below walks through data of the DeepSol protein solubility set.

The data set in a line: soluble on expression in E. coli; label from the status in PepcDB or PDB records.
Regarding “MASYKGLIVDVNGRSHENNLAHRTREIDRERLIVRRGQPFSITLQCSDSLPPKHHLELVLHLGKRDEVVIKVQKEHGARDKWWFNQQGAQDEILLTLHSPANAVIGHYRLAVLVMSPDGHIVERADKISFHMLFNPWCRDDMVYLPDESKLQEYVMNEDGVIYMGTWDYIRSIPWNYGQFEDYVMDICFEVLDNSPAALKNSEMDIEHRSDPVYVGRTITAMVNSNGDRGVLTGRWEEPYTDGVAPYRWTGSVPILQQWSKAGVRPVKYGQCWVFAAVACTVLRCLGIPTRPITNFASAHDVDGNLSVDFLLNERLESLDSRQRSDSSWNFHCWVESWMSREDLPEGNDGWQVLDPTPQELSDGEFCCGPCPVAAIKEGNLGVKYDAPFVFAEVNADTIYWIVQKDGQRRKITEDHASVGKNISTKSVYGNHREDVTLHYKYPEGSQKEREVYKKAGRRVTEPSNEIAEQGRLQLSIKHAQPVFGTDFDVIVEVKNEGGRDAHAQLTMLAMAVTYNSLRRGECQRKTISVTVPAHKAHKEVMRLHYDDYVRCVSEHHLIRVKALLDAPGENGPIMTVANIPLSTPELLVQVPGKAVVWEPLTAYVSFTNPLPVPLKGGVFTLEGAGLLSATQIHVNGAVAPSGKVSVKLSFSPMRTGVRKLLVDFDSDRLKDVKGVTTVVVHKKYRSLITGLHTD”, the “soluble on expression in E. coli” value is listed as “soluble”. Under “NGEEHEQTHRAIFRFVPRHEDELELEVDDPLLVELQAEDYWYEAYNMRTGARGVFPAYYAIEVTKEPEHMA” stands “soluble”; under “MISITSAEVGMKINEWHRHIQKFNVTDAEMLKAEIERDIEVMEEDQDLLIYYQLMAFRHKIMLEYTLPSDENRMELSEYLNKIEGHKKKLDNMRAYYYNFFRGMYEFRNGEYTRAITYYKKAERKIPTISDKIEKAEFYFKLSEVYYHMKMTHISMHYAELSYNIYKKHELYSVRRIQCHFVIAGNYDDLENHEKALPHLQEALKGAELLKSKNTHIYATAFFNLGNCYHKMDNLNKAARYIEQALVQYRKINSDVLPQAYHDLALIYFKQGKKGQAMDCFRKGIRSAVDFKDELFMNLFEALDVLYIRNGDTPKLLNIFSRLENGKGYPYLEELALLGGNLFDYNGKIEDSIICFKK”, “not soluble”. In the case of “MGSDKIHHHHHHMDLGAPIGAHGNQPETEAATQCEIVLQGPTCGFPSWTRHCNIDCIRDFQPFDRLMKQGQRKTKLEFHNDGRLLAAQGDDICGPDLAFYRVTLSLQQRFDRGVEILFTFHPGHACPGSVSMAMCPRLIFMRNTMNRLLSRAQRSGDRRHALGHSGAVPATLRPFLSLICFCLVAVWMATPLRAACSGLDLRESAAPGMWAEIEAEIALTPFARGLSWVATRGDRRLHIIGTMHLNDPRHDALVAHMAPAIQAADAVLLEVNRADKARLERTLAETPSLIFITEGPTLIDRLPPEEWDEIAERAGAAGIPPFMAAKMRPWFLSLSMSVPLCARAIEDVTDGLDMKLMTLAERAGVETLSLEDPLGLFQLFDATPIEEQIKELRSYIAMAGVGADDFYTMVESYFDGEVQAYVLLQLKQFLTSESDLSVAERQAQVDDLLEALLYQRNRDWIPVIEATAGNRLVIAVGAAHLPGEAGVLALLEAEGYQIEEALR”, the “soluble on expression in E. coli” value is recorded as “not soluble”. Take “MSLDSRPAVLEISASIIDISENALEQLGVDWRLHNSRFDLQTGNGTNTMLNNPGSLDSVATTAGAAAAIAATPAGGVLSAVIGGGSRYLMARISALQQTDQARITANPKVATLDNTEAVMDNRQNFYVPVAGYQSADLYAISAGVSLRVLPMVVMDGGTVRIRMNVHIEDGQITSQQVGNLPITSQSEIDTQALINEGDSLLIAGYSVEQQSKSVDAVPGLSKIPLVGALFRTDQTTGKRFQRMFLVTPRVITPEGHHHHHH”: the “soluble on expression in E. coli” value is given as “soluble”.

As for “MANDEQQQLLNKIVRDDSQDKQVLLMINGAAGTGKTFLIKLIENSMNRSVRKRVVLMTGSTGKAAKAIGGRTLHCTIGLPNEKPEDLERLKYQAFICVTTRLIIIDEITLLASWHLDATDMVLKRTPKRTDALFGGLSIILVGDLRQLNLGGWRGKKQIDTVFIKVGGYPDPISCQNVCD”, the “soluble on expression in E. coli” value was “not soluble”. In the case of “MILVTGSSGQIGTELVPYLAEKYGKKNVIASDIVQRDTGGIKFITLDVSNRDEIDRAVEKYSIDAIFHLAGILSAKGEKDPALAYKVNMNGTYNILEAAKQHRVEKVVIPSTIGVFGPETPKNKVPSITITRPRTMYGVTKIAAELLGQYYYEKFGLDVRSLRYPGIISYKAEPTAGTTDYAVEIFYYAVKREKYKCYLAPNRALPMMYMPDALKALVDLYEADRDKLVLRNGYNVTAYTFTPSELYSKIKERIPEFEIEYKEDFRDKIAATWPESLDSSEASNEWGFSIEYDLDRTIDDMIDHISEKLGIEGKHAL”, the “soluble on expression in E. coli” value is listed as “soluble”. Under “PTAGADTIEYCVTHSESKALIGGKLDDPAATQQVIDAMPELISIALPYDSAPQCQYQFNALIADAVPSEERPQHYDDKLMSLVYTSGTSGLPKGAMLTYGAFSWSVQQLINHIGIQANDRLFSYLPLAHITER” stands “not soluble”; under “AHHHHHHGSKLDDSFLTLFPEEDKVYEVLLSTKSNFTPIGVRRQGRVLKFRIFEGRSFRDLEECNYAIIQVVDDTELLAGLAYNLDVKFDVTQGIKVPIRRIEGYPWVEGEVKCRIVKVKDSIGESIAKDCTLTPIYIGIEKRVPRPISRADNVLLELAVLGTRLIVKKKRGLQIKDVAQKIEELYELYRKLGGKSEIAGKIMDILRKHYL”, “soluble”.

In the case of “MTFSDPMDPSIPIFQHHEEEEAGPSTTIKAEEEDGPCCLVCGRVANTGHHYGVTACLGCKTFFRRVVLQKNSPKCKYKNHCRLEKSVNAKRLCRSCRYQKCLEVGMTEDALHPCRDVIGRRVRNNSSDSSPISSPPSIPTPLSICKLMNLSEGDHKLLQTITDMDTDIRTRTAHILGEPANGNEQIHFYSPTPDYTNVIVNHGIGPSLKVDILLLREWVDRIPGFRELSERFQQHLMHRFCLRYTVIEHGLFTAQMPYHKNVWFLSDRTCLVSEFENLPQEIKKHLTPKVINEQQLLASFTEMLIHEVADPLRRLKPDSVEVATVKTLMLLKPTCLREIDGDYLSTETDIKSVNDVRNRVINGLYSHYIKNGMDPEQLPIRVSEILNLTGGVEQCAARALEEMHPTRVFNLSSFDPYSSNVIFGYYRDV”, the “soluble on expression in E. coli” value was “not soluble”. In the case of “MAHHHHHHMHLKECPPASSVGWLRPSLTIYMFGSKSLALSSAVFVLDCFTMGRKQRLLSAVVNVPLTLRLMLYFSASYKGEEPRLPPSTCVLGSSQGNNFLLLPGAFAESGCTTFFPGREGLMSELQDELWLQLPSRLLILARLDLANFLFAVVGRLPNSGINLFQQRPPSSLAVLPKRCMGMTLVALTTL”, the “soluble on expression in E. coli” value is on record as “not soluble”. Under “GPLGSKAPTVFSQNEASLLNQLKNIANREDYVVTWWDYGYPVRYYSDVKTLVDGGKHLGKDNFFPSFALSKDEQAAANMARLSVEYTEKSFYAPQNDILKSDILQAMMKDYNQSNVDLFLASLSKPDFKIDTPKTRDIYLYMPARMSLIFSTVASFSFINLDTGVLDKPFTFSTAYPLDVKNGEIYLSNGVVLSDDFRSFKIGDNVVSVNSIVEINSIKQGEYKITPIDDKAQFYIFYLKDSAIPYAQFILMDKTMFNSAYVQMFFLGNYDKNLFDLVINSRDAKVFKLKI” stands “soluble”; under “RQFQILLQQINMTDDTFMTYFEHGEIKKLTIHKASKSWHFHFQFKSLLPFQIYDTLTTRLTQSFAHIAKVTSSIEVQDAEVSESIVQDYWSRCIEELQGISPPIISLLNQQKPKLKGNKLIVKTKTDTEAAALKNKYSSMIQA”, “not soluble”; under “MKQGTMKILFFVLKTKLLKNGEAPILMRITINGQYEETRIQRSVPLKLWNAAKGCSKGKDRASNELNSYLSELATRALEKYKELILEQAISTPSLILKRVFGKDTEMRTLLGTIRQEIKEMEKVVNIDYAPVTINRYKNVLKKLENSIPTFYDKEDITFHELTPEFIKAFDLHLKTEVGLCRNTIVRYMKCFKKITNMALAKGWMKKDAFYGYKMEQDETDPVFLTYDELQTVMNKEFTIPRLVLVRDIFIFACFTGLAFADVSTLKKEDLVQDNNGDWWIRKGRIKLMHRHKASSICNIPLLPVPLAILKKYENNPVCIKKGCCLPVPCNQKMNSYLKEIADFCGIKKNITTHAGRHTFGTTITLANNVPLQDVSVMLGHASTRMTQHYARVMNASLKKSMLNVKKRLTQ”, “not soluble”. Under “LGGVAPEQVAYAVEQAGKRLQERDNAGVKVRPARLTDLDALEGMVAYWAGLGENLPRNRNELVRDIGSFAVAEHHGEVTGCASLYVYDSGLAEIRSLGVEAGWQSQGQGKAIVQHLVEKAREMAIKKVFVLTRVPEFFMKQDFIPTSRSLLPEKVLKDCDQCPRQH” stands “not soluble”; under “GPGSMKKELRVGVLISGRGSNLEALAKAFSTEESSVVISCVISNNAEARGLLIAQSYGIPTFVVKRKPLDIEHISTVLREHDVDLVCLAGFMSILPEKFVTDWHHKIINIHPSLLPSFKGLNAQEQAYKAGVKIAGCTLHYVYQELDAGPIIMQAAVPVLREDTAESLASRILAAEHVCYPKGVKLIAQDKIKLCDDGTVQCTGEDELFLFQENF”, “soluble”. Under “MSEIIVYTQNDCPPCTFVKNYLNEHQIDFEERNINNQQYRNEMIDFDAFSTPFILLNGNPMYHVDLDEINKVLNIQD” stands “not soluble”; under “MGSDKIHHHHHHMDISDIAANDYVEVDAEQRLGKVRSLFERENPKGVIVTEAGAYDGVITERQLIQSHIGDDTRVAAMVTDAPKVSRTEDVRETARMLVEGGTKIAPVFEAGSLWGVITEDAILDAVLANLDALDVRDIYTEHVVTVDEDDSMGRVINLLREHGISRLPVVDDAGLLSGIVTRYDIVDFVVRDTEKTTVGDRSGEIERLLDLPVSDEMTSPVKTASFDDSVRDAVDDMLAHDYSGVIVTPDDDERAVGGILTKTDVLRALSYTEEEHLDVQITNIDLLDTLSRQEVRERIENVVAKYGDMDVHHAHVRLSKHKEKLRGTPLIQSQIRLRTNKGQIAGTGEGYGADNSFHVALDKLERNVLELKGIEHDEEYEGQLLRKLNDL”, “not soluble”; under “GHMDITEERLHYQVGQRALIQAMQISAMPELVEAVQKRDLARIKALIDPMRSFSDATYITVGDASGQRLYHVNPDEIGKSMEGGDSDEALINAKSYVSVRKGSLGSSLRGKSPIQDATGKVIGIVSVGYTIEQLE”, “soluble”. In the case of “MSLRQIRTVIQYQTVRYDILPLSPVSRNRLAQVKRKILVLDLDETLIHSHHDGVLRPTVRPGTPPDFILKVVIDKHPVRFFVHKRPHVDFFLEVVSQWYELVVFTASMEIYGSAVADKLDNSRSILKRRYYRQHCTLELGSYIKDLSVVHSDLSSIVILDNSPGAYRSHPDNAIPIKSWFSDPSDTALLNLLPMLDALRFTADVRSVLSRNLHQHRLWEGHHHHHH”, the “soluble on expression in E. coli” value was “not soluble”. On to “MPATTSIPPVTAPGTGGEASSFNVDELIQYVLQGKPLSEPQVARLCQKAREVLEKEENVHTVRAPVTVCGDIHGQFHDLLELLKIGGLPPDTNYLFMGDYVDRGYYSVETVTLLLLFKIRYPERVQILRGNHESRQITQVYGFYDECVRKYGSANVWKLLTDLFDYLPLAAVVENEIFCLHGGLSPTLDSLAHIRSLERVQEVPHEGPMCDLLWSDPEDKDGWGISPRGAGFTFGADITEQFCHNNGLKTIARAHQLVAEGYSWAHSDKLVTIFSAPNYCYRCGNLAGLLELDEHMNKCFFQFDPAPRRGEAQVSKKTPDYFL”, for which the “soluble on expression in E. coli” value was “not soluble”.
